In data set [1] the test system is PMT-complemented mutant yeast. Put plainly: Growth inhibition of complemented yeast (statement on PMT-complemented strains together). Particulars: various concentrations. The data set is classed as cell-based, Saccharomyces cerevisiae. On the procedure: (§1) To determine the effect of PMT inhibitors on the growth of PMT- and LacZ-complemented pem1Δpem2Δ S. cerevisiae, the yeast cells were first starved of choline as described above, and the cells were diluted to an OD600 of ~0.6. The PMT-complemented yeast cells were cultured in SG medium (3.4g/L yeast nitrogen base without amino acids, 2% galactose, 30 mg/L histidine, 100 mg/L leucine, 100 mg/L adenine, and 50 mg/L tryptophan) supplemented with 1 mM ethanolamine hydrochloride, while the LacZ-complemented yeast cells were cultured in SG medium supplemented with 1 mM choline chloride. Compounds that depicted cross-inhibitory activity against PMT proteins in vitro were added at various concentrations to the cultures. As a negative control, DMSO (at a final concentration not exceeding 2% [vol/vol]) was added to yeast cultures designated control cultures. The cultures were incubated at 30°C with shaking at 275 rpm for 4 days. On a daily basis during the course of culture, 200-μL portions of culture aliquots were taken, and their OD600s were measured using a microplate reader. In preliminary work, we had observed that the growth of PMT- and LacZ-complemented pem1Δpem2Δ S. cerevisiae plateaued at 3 to 4 days of culture. Therefore, to determine the inhibitory effect of nematode PMT inhibitors on the growth of PMT- and LacZ-complemented pem1Δpem2Δ S. cerevisiae, measurements taken on day 3 were used. The results were presented as percentage of growth rate using the following formula: PGR = growth rate (plus inhibitor)/growth rate (minus inhibitor) × 100 where the percent growth rate (PGR) is the growth rate of inhibitor-treated PMT- or LacZ- complemented Pem1Δpem2Δ S. cerevisiae, considering the growth rate of untreated PMT- or LacZ- complemented Pem1Δpem2Δ S. cerevisiae is 100%; the growth rate = ΔA600^Day 3/ΔA600^Day 0; ΔA600^Day 0 is the absolute value of A600 of PMT- or LacZ- complemented pem1Δ/pem2Δ S. cerevisiae at day 0, which equals the A600 of the culture minus the A600 of the growth medium only; ΔA600^Day 3 is the absolute value of the A600 of PMT- or LacZ complemented pem1Δ/pem2Δ S. cerevisiae at day 3, which equals the A600 of the culture at day 3 minus the A600 of growth medium only; the growth rate (plus inhibitor) is the growth rate of PMT- or -LacZ complemented pem1Δpem2Δ S. cerevisiae in the presence of test compound; and the growth rate (minus inhibitor) is the growth rate of the PMT- or LacZ complemented pem1Δ/pem2Δ S. cerevisiae in the absence of test compound, but with a volume of DMSO equal to that of compound added in the treated culture. The dose-response curves were generated with GraphPad Prism software and IC50 concentrations of the compounds in PMT- and LacZ-complemented yeast cells derived.

Data set [2] deals with LacZ-complemented pem1Δ/pem2Δ S. cerevisiae. Put plainly: Growth inhibition of complemented yeast. The data set is classed as cell-based, Saccharomyces cerevisiae. Conditions: medium with choline. On the procedure:
as §1

In data set [3] the target is AcPMT1 (Ancylostoma duodenale, UniProt A0A0C2DEB6). The experiment in a line: PMT enzyme kinetics, fluorescence methyltransferase assay. Conditions: on phosphoethanolamine. The format is biochemical. On the procedure:
(§2) We customized a commercial methyltransferase HT activity assay kit (ENZO) for use of recombinant PMT proteins as enzymes, S-adenosyl-L-methionine (SAM) as the methyl donor, and PE as the substrate, as reported previously ([27]). […] Briefly, the reaction mixture contained 2.5 μL of the kit SAM-free methyltransferase reaction buffer, 3 μL of 10 mM PE solution (pH 7.5), 15 μL of 1 mM SAM solution (pH 7.8), and 1× transferase assay buffer to a final volume of 25 μL. Various concentrations (25-μL total volume) of recombinant PMT protein were added to reactions.
(§3) To determine the enzyme kinetic parameters on SAM, fixed concentrations of PMT recombinant proteins (between 15 and 100 ng/μL, depending on the derived optimal concentration) and PE (200 μM) were used in the reactions, with various concentrations of SAM (0 to 160 μM). On the other hand, to determine the enzyme kinetic parameters on PE, fixed concentrations of PMT recombinant proteins (between 15 and 100 ng/μL, depending on the derived optimal concentration) and SAM (100 μM) were used, with various concentrations of PE (0 to 250 μM).
(§4) For normalization, instead of purified protein, 25 μL of 100 μM S-(5′-adenosyl)-L-homocysteine (SAH) as a positive control, 25 μL of dialysis buffer as a negative control, and 25 μL of 1× transferase assay buffer as a blank control were added to the respective reaction mixtures. The reactions were prepared in triplicate wells using black flat-bottomed 96-well plates. Detection buffer (100 μL) was added into each reaction, yielding a final reaction volume of 150 μL. The plates were covered in aluminum foil and incubated at room temperature with shaking for 30 min, and fluorescence read at 380EX/520EM using a SpectraMax Gemini EM microplate reader (Molecular Devices). Sample readouts were normalized with positive and negative controls.

Data set [4] addresses DvPMT1 (Dictyocaulus viviparus, UniProt A0A0D8Y714). The description is as above. Conditions: on phosphoethanolamine. The data set is classed as biochemical. The procedure:
as §2, §3, §4

Data set [5] addresses HcPMT1 (Haemonchus contortus, UniProt U5HK46). The description is as above. The format is biochemical. Particulars: on phosphoethanolamine. The procedure:
as §2, §3, §4

Data set [6] concerns the target OdPMT (Oesophagostomum dentatum, UniProt A0A0B1TAL6). The data set is described as above. The format is biochemical. Particulars: on phosphoethanolamine. On the procedure:
as §2, §3, §4

The target of data set [7] is AsPMT (Ascaris suum, UniProt F1L4B9). Described as above. The format is biochemical. Conditions: on phosphoethanolamine. On the procedure:
as §2, §3, §4

Data set [8] has as its target TcPMT (Toxocara canis, UniProt A0A0B2VTW9). Described as above. The data set is classed as biochemical. Conditions: on phosphoethanolamine. The procedure:
as §2, §3, §4

Substrate in data set [9]: C[S+](CC[C@H](N)C(=O)[O-])C[C@H]1O[C@@H](n2cnc3c(N)ncnc32)[C@H](O)[C@@H]1O
Described as above. The format is biochemical, Haemonchus contortus. Particulars: other: on S-adenosyl-L-methionine. The procedure: as §2
(§5) To determine the enzyme kinetic parameters on SAM, fixed concentrations of PMT recombinant proteins (between 15 and 100 ng/μL, depending on the derived optimal concentration) and PE (200 μM) were used in the reactions, with various concentrations of SAM (0 to 160 μM). […]
(§6) For normalization, instead of purified protein, 25 μL of 100 μM S-(5′-adenosyl)-L-homocysteine (SAH) as a positive control, 25 μL of dialysis buffer as a negative control, and 25 μL of 1× transferase assay buffer as a blank control were added to the respective reaction mixtures. […] The plates were covered in aluminum foil and incubated at room temperature with shaking for 30 min, and fluorescence read at 380EX/520EM using a SpectraMax Gemini EM microplate reader (Molecular Devices). Sample readouts were normalized with positive and negative controls.

Substrate in data set [10]: C[S+](CC[C@H](N)C(=O)[O-])C[C@H]1O[C@@H](n2cnc3c(N)ncnc32)[C@H](O)[C@@H]1O
Described as above. The data set is classed as biochemical, Toxocara canis. Conditions: other: on S-adenosyl-L-methionine. The procedure:
as §2, §3, §4

Substrate in data set [11]: C[S+](CC[C@H](N)C(=O)[O-])C[C@H]1O[C@@H](n2cnc3c(N)ncnc32)[C@H](O)[C@@H]1O
Described as above. The format is biochemical, Dictyocaulus viviparus. Conditions: other: on S-adenosyl-L-methionine. The procedure:
as §2, §3, §4

Substrate in data set [12]: C[S+](CC[C@H](N)C(=O)[O-])C[C@H]1O[C@@H](n2cnc3c(N)ncnc32)[C@H](O)[C@@H]1O
Described as above. The data set is classed as biochemical, Oesophagostomum dentatum. Particulars: other: on S-adenosyl-L-methionine. The procedure: as §2, §3, §4

Substrate in data set [13]: C[S+](CC[C@H](N)C(=O)[O-])C[C@H]1O[C@@H](n2cnc3c(N)ncnc32)[C@H](O)[C@@H]1O
The data set is described as above. The format is biochemical, Ancylostoma duodenale. Particulars: other: on S-adenosyl-L-methionine. The procedure:
as §2, §5, §6

The text below walks through data of paper PMC10269165 (Antimicrobial Agents and Chemotherapy, 2023).

Sequence of AsPMT (F1L4B9 entry or part of it): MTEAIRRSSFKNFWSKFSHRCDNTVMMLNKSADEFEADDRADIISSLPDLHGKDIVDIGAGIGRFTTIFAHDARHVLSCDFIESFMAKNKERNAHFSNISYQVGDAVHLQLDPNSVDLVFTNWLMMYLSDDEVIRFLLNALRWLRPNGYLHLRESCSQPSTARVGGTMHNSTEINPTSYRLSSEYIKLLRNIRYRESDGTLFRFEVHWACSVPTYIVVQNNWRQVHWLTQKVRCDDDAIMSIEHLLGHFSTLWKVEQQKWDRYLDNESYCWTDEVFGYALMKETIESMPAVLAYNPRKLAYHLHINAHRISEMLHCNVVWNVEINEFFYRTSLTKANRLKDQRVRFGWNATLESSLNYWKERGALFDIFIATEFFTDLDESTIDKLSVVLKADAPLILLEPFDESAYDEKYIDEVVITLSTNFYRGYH

In the case of `CC[C@H]1NC(=O)[C@@H](NC(=O)c2ncccc2O)[C@@H](C)OC(=O)[C@H](c2ccccc2)NC(=O)[C@@H]2CC(=O)CCN2C(=O)[C@H](Cc2ccccc2)N(C)C(=O)[C@@H]2CCCN2C1=O` [NSC177858], the “effect on the growth of PMT-complemented mutant yeast” value in data set [1] is given as “concentration-dependent inhibitory effect”. Also, the “effect on LacZ-expressing mutant yeast” value in [2] is given as “no or negligible inhibitory effect”.

Turning to `NCCOP(=O)(O)O` [phosphoethanolamine], the kcat (usually the maximal rate divided by the concentration of active sites) was 7,071.00 ± 1,141.00 min^−1 in data set [3]; 16.113 ± 1.61 s⁻¹ in [4]; 1,066.30 ± 72.70 min^−1 in [5]; 5.5833 ± 0.3603 s⁻¹ in [6]; 3.2383 ± 0.49 s⁻¹ in [7]; 10.412 ± 3.6983 s⁻¹ in [8]. In addition, the Km (commonly the substrate concentration at which the rate is half of its maximum) in [4] turned out to be 308 ± 41.7 µM; in data set [5], 73.4 ± 54.9 µM; in data set [6], 81 ± 12.8 µM; in data set [7] it was 99.9 ± 36.6 µM; in data set [8], 85 ± 77.8 µM.

B1: HcPMT1 (Haemonchus contortus) (protein)
chain: MTAEVRRDSFKTFWDKYSDKPDTNSMMLNQTAQDLEASDRADILSSLPHLTNKDVVDIGAGIGRFTTVLAETARWVLSTDFIESFIEKNQERNAHMGNISYQIGDAVHLQMDEKSVDLVFTNWLMMYLSDREVIEFLLNAMRWLRADGYIHLRESCSEPSTGRLKTATMHSAVDANPTHYRFSSLYIKLLRAIRYRDSDGKMWKFDVQWSCSVPTYIRRCNNWRQVHWLTKKVPAVGDEETSVDDLLNLFSQIWPAEQKTWDEKLDNEKYSWTDKIFSNAIDDEVVPKNSTAYVFTPRQRSPFLHVNSHLLAEKFTCNVWNVETKEYLYRTSLTKANNQKDQRVRFGWNESLSSSIDYWNQRDASFDCMVATELLATCDDESINSIASIMKPEAKVVLLEPVSGIDETSVRQRMTTCGFKNITIVDVTQESLNAEVSFIKDHNLDVELSGCNYLLIKASL
As for B1, in [9], the Michaelis constant (Km) stood at 18.34 ± 3.80 µM and the specificity constant (kcat/Km) (in general, the second-order rate constant that governs catalysis at low substrate concentration) stood at 3.91e+06 M⁻¹ s⁻¹.

B2: TcPMT (Toxocara canis) (protein)
chain: MPRLNQKAKTFRDFLDTTQYTDEGIRAYEWIFGENFISPGGYNENLLVLKRLGELKPDSRMLDIGVGIGGGARQAAKEFGLLVLGIDISANMLSIAMDRLQVEKDTRIRYQICNAVDYQFPSNSFDYIVSRDGLHHNEHIDIVMKNIFKWLKPGGKALITIYGKGHGAPKTKFQAYVENRKYHLKTLEQMVQVTKDAGFENVQGTNLTKRLRDILIEERTRALARKGRFLEDFSEETFNSLLEGWNDKIDFIDDDNQTWLQIIATKPL
For the molecule B2, in [10], the Km is 20.31 ± 2.23 µM; the Vmax (in general, the top rate of the reaction or transport when substrate is in excess) came to 1.08 ± 0.0324 µmol/min/mg; the kcat came to 10.9 ± 0.327 s⁻¹; the kcat/Km is 539000 M⁻¹ s⁻¹.

B3: DvPMT1 (Dictyocaulus viviparus) (protein)
chain: MSQGMRHADAVIYGEYDNGRRMKENELKGEHIKNYRTTYDENSFNNTMAVEVRRDLFKTFWDRYSDKPDTNSMMLNHTANDLDASDRADILSSLPHLGNKDVVDIGAGIGRFTTVLANTARWVHSTDFIESFIAKNQERNAHLGNISYQIGDAVNLQMNERSVDLVFTNWLMMYLSDHEVIEFLFNAMRWLRPDGYLHLRESCSEPSTACSKTATMHSSAEANPTHYRFSSLYIKLLRTIRYRDNSGKLWKFDVQWSCSVPTYIQRSNNWRQVHWLTRKVPANNGDTDTSISLLLNLFSQIWPAEQVEWDLKLNIESYVWTDRVFSNAINDEVVPRNGTALVFTPRKRSPYLHVNSHLLAEKFTCNVWTVETNEYYYRTSLTKANHEKNHRVRFGWNESLTSSIDYWSQRDASFDCLISTELLSTNSDDEIKRITRMIGCGFKHVNILDVTNDSRTAEVMFYSEHSINAEPLGCTFLLISATL
B3: in data set [11], the Km came to 35.02 ± 5.05 µM, the Vmax was 0.445 µmol/min/mg, the kcat stood at 3.96 ± 0.214 s⁻¹ and the kcat/Km was 113000 M⁻¹ s⁻¹.

B4: OdPMT (Oesophagostomum dentatum) (protein)
chain: MIFQKRFTTVLAETARWVHSTDFIESFIAKNQERNAHLGNISYQIGDAVHLQMDEKSVDLVFTNWLMMYLSDREVIEFLFNAMRWLRADGYMHLRESCSEPSTGRSKSATMHTSAEANPTHYRFSSLYIKLLRALRYQDSDGKVWRFDVQWSCSVPTYIRFFSETWRAEQIAWDAKLDKEQYVWTDKIFSNVLDSAVVPKNSTAYVFTPRRRSPYLHVNSHLLADKFTCNVWNVELNENFYRTSLTKANNQKDQRVRFGWNETLASSIDYWTQRDGSFDCLIATELLSTSDDESIKSIASIMKPEAKCVLLEPVDEVNEAVIKARMSSCGFKNVSVMDVTEDCKAAEAAYASDHNLQIDPSNCSYVLINASL
In the case of B4, in [12], the Km was 48.95 ± 7.07 µM, the Vmax was 3.13 ± 0.204 µmol/min/mg, the kcat came to 45.4 ± 2.96 s⁻¹ and the kcat/Km was determined as 927000 M⁻¹ s⁻¹.

B5: AcPMT1 (Ancylostoma duodenale) (protein)
chain: MEERSVDLVFTNWLMMYLSDREVIEFLFNAMRWLRADGYMHLRESCSEPSTGRAKSSTMHSNTDSNPTHYRFSSLYIKLLRAIRYRDNDGKVWRFDVQWSCSVPTYIKRSNNWRQVHWLTKKVSADGDDETTINDLLKLFSQTWYTEQVAWDAKLDNEKYVWTDKIFSNAIDNEVVPKNSTAYVFTPRKMSPYLHINSHLLAEKFTCNVWNVEMNENFYRTSLTKANNQKDQRVRFGWNESLASSIDYWTQRDASFDCLIGTELLSTNGDESIKRIASIMKPEAKIVLLEPVDDVAEQAIKERMASCGFKNISVVDVTEECKAAEAAYANDHNLAFLFIEL
As for B5, in data set [13], the Km was 27.33 ± 3.58 µM and the kcat/Km was 1.98e+06 M⁻¹ s⁻¹.
